# Test results taken from patent publication US20140348834A1 (published 2014).
# Changes are numbered by the printed parent chain.
# B1: IL17-TN-L7-G9 (antibody, V domains shown)
# VH: EVQLLESGGGVVQPGRSLRLSCAASGFIFSNYGMHWVRQAPGKGLEWVAVISYDGSNKYYADSVKGRFTISRDNSKNTLYLEMNSLRPEDTAVYYCAKVGASGDYYYSYGLDVWGQGTTVTVSS
# VL: QSGLTQPPSASGTPGQTVSISCSGSNSNIGSHSVNWYQQVPGAAPKLLMYGIGQRPSGVPDRFSVSQSGTSASLAISGLQSEDEADYYCATWDDSLGGYVFGSGTKVTVLG
# notes: Fully human antibody
# B2: IL17-G9-M1 (antibody, V domains shown)
# VH: B1 VH with S56G, N57Y, V99L, G100S, A101L, L111F, V113G
# VL: B1 VL with G3V, N26K, S33Y, N35H, G51D, I52F, V65G, A90G, S95W, S103T
# B3: IL17-G9-2 (antibody, V domains shown)
# VH: B1 VH with S30R
# VL: B1 VL with G3V, S31R, S33P, N35D, M49I, G51Y, I52D, G53D, V65G
# B4: IL17-G9-4 (antibody, V domains shown)
# VH: B1 VH
# VL: QSVLTQPPSASGTPGQTVSISCSGRQSNIGRHYVDWYQQVPGAAPKLLMYYDSIRPSGVPDRFSGSQSGTSASLAISGLQSEDEADYYCATWDDSLGGYVFGSGTKVTVLG
# notes: converted into IgG
# B5: IL17-G9-1 (antibody, V domains shown)
# VH: B1 VH
# VL: B4 VL with R25S, Q26H, Y33P, D52G, S53G, I54Y, S95R, G97V
# B6: IL17-G9-M2 (antibody, V domains shown)
# VH: B1 VH
# VL: QSVLTQPPSASGTPGQTVSISCSGHNSNIGYHYVHWYQQVPGAAPKLLIYGDGWRPSGVPDRFSGSQSGTSASLAISGLQSEDEADYYCGTWDDWLGGYVFGTGTKVTVLG
# notes: converted into IgG
# B7: IL17-h5C5.12 (antibody, V domains shown)
# VH: EVQLVQSGAEVKKPGASVKVSCKASGYTFTDYEFHWVRQAPGQGLEWIGVIHPGNGGTAYNQNFRDRATLTADKSTSTAYMELSSLRSEDTAVYYCTRFLTYEGYFDYWGQGTLVTVSS
# VL: EIVMTQSPATLSVSPGERATLSCKASQSVSIDVGWYQQKPGQAPRLLIYHASNRYTGIPARFSGSGSGTDFTLTISSLQPEDFAVYYCQQDYSSPYTFGQGTKLEIKR
# notes: IgG; constant regions not specified
# B8: IL17-h5C5.13 (antibody, V domains shown)
# VH: QVQLQQSGAELVRPGASVKLSCKALGYTFTDYEFHWVKQTPVHGLEWIGVIHPGNGGTAYNQNFRDKATLTADKSSSTAYMELSSLTSEDSGVYYCTRFLTYEGYFDYWGQGTALTVSS
# VL: B7 VL with Y36F, A43S, I58V, Y87F
# notes: as for B7
# B9: IL17-h5C5.6 (antibody, V domains shown)
# VH: B7 VH
# VL: DIQMTQSPSSLSASVGDRVTITCKASQSVSIDVGWYQQKPGKAPKLLIYHASNRYTGVPSRFSGSGSGTDFTFTISSLQPEDFATYYCQQDYSSPYTFGQGTKLEIKR
# notes: as for B7
# B10: IL17-h5C5.17 (antibody, V domains shown)
# VH: B7 VH with I48M, A68V, L70I, T97A
# VL: B9 VL with D1N, Q3V, Y36F, A43S, Y87F
# notes: as for B7
# B11: IL17-h5C5.10 (antibody, V domains shown)
# VH: B8 VH
# VL: B7 VL
# notes: as for B7
# B12: IL17-h5C5.5 (antibody, V domains shown)
# VH: B7 VH with I48M, A68V, L70I, T97A
# VL: B9 VL
# notes: as for B7
# B13: IL17-h10F7.5 (antibody, V domains shown)
# VH: EVQLVQSGAEVKKPGSSVKVSCKASGYTFTDYEIHWVRQAPGQGLEWMGVNDPESGGTFYNQKFDGRVTITADKSTSTAYMELSSLRSEDTAVYYCARYYRYESFYGMDYWGQGTTVTVSS
# VL: DIQLTQSPSSLSASVGDRVTITCSASSSISYIYWFQQKPGKSPKRWIYATFELASGVPSRFSGSGSGTDYTLTISSLQPEDFATYYCHQRSSYPWTFGQGTKLEIKR
# notes: as for B7
# B14: IL17-h10F7.1 (antibody, V domains shown)
# VH: B13 VH with M48I, V68A, I70L, A97T
# VL: QIVLTQSPAIMSASPGEKVTMTCSASSSISYIYWFQQKPGTSPKRWIYATFELASGVPARFSGSGSGTSYSLTISSMEAEDAATYYCHQRSSYPWTFGGGSKLEIKR
# notes: Cloned into IgG expression vectors; constant regions not specified
# B15: IL17-h10F7.10 (antibody, V domains shown)
# VH: B13 VH
# VL: EIVLTQSPDFQSVTPKEKVTITCSASSSISYIYWFQQKPDQSPKRWIYATFELASGVPSRFSGSGSGTDYTLTINSLEAEDAATYYCHQRSSYPWTFGQGTKLEIKR
# notes: as for B7
# B16: IL17-h10F7.7 (antibody, V domains shown)
# VH: B13 VH
# VL: B15 VL with F35Y, R45L, W46L, Y48K, Y70F
# notes: as for B7
# B17: IL17-h10F7.8 (antibody, V domains shown)
# VH: B13 VH with M48I, V68A, I70L, A97T
# VL: B15 VL with F35Y, R45L, W46L, Y48K, Y70F
# notes: as for B7
# B18: IL17-h10F7.12 (antibody, V domains shown)
# VH: B13 VH
# VL: B13 VL with D1Q, Q3V
# notes: as for B7
# B19: IL17-h10F7.3 (antibody, V domains shown)
# VH: B13 VH with M48I, V68A, I70L, A97T
# VL: B13 VL with L4M, F35Y, S42A, W46L, Y70F
# notes: as for B7
# B20: IL17-h10F7.14 (antibody, V domains shown)
# VH: B13 VH
# VL: B13 VL with D1E, Q3V
# notes: as for B7
# B21: IL17-h10F7.16 (antibody, V domains shown)
# VH: B13 VH
# VL: B15 VL with E1Q
# notes: as for B7
# B22: IL17-h5C5.1 (antibody, V domains shown)
# VH: B8 VH
# VL: NIVMTQTPKFLLVSPGDRVTITCKASQSVSIDVGWFQQKPGQSPKLLIYHASNRYTGVPDRFTGSGYGTDFTFTVNTVQAEDLAVYFCQQDYSSPYTFGGGTKLELKR
# notes: as for B7
# B23: IL17-h5C5.7 (antibody, V domains shown)
# VH: B8 VH
# VL: B9 VL with Y36F, A43S, Y87F
# notes: as for B7
# B24: IL17-h5C5.16 (antibody, V domains shown)
# VH: B8 VH
# VL: B9 VL with D1N, Q3V, Y36F, A43S, Y87F
# notes: as for B7
# B25: IL17-TN-K7-B6 (antibody, V domains shown)
# VH: EVQLVQSGAEVKKPGESLKISCKASGGSFRSYGISWVRQAPGQGLEWMGGITPILGTANYAQKFQGRVTITADESTTTAYMELSGLTSDDTAVYYCAREPNDFWNGYYTTHHFDYWGQGTPVTVSS
# VL: DVVMTQSPDFQSVTPKEKVTITCRASQNIGSALHWYQQKPDQSPKLLIKYASQSISGVPSRFSGSGSGTDFTLTINGLEAEDAGTYYCHQSTSLPHTFGQGTKLDIKR
# notes: Fully human antibody
# B26: IL17-B6-15 (antibody, V domains shown)
# VH: EVQLVQSGAEVKKPGESLKISCKASGGSFSGYGTSWVRQAPGQGLEWMGGITHFFGAVDYAQKFQGRVTITADESTTTAYMELSGLTSDDTAVYYCARDPNEFWNGYYATHDFDYWGQGTTVTVSS
# VL: EIVLTQSPDFQSVTPKEKVTITCRASQNIGAELHWYQQKPDQSPKLLIKYASHSISGVPSRFSGSGSGTDFTLTINGLEAEDAGTYYCHQTDRLPYSFGPGTKVDIK
# Experiments:
# cyno IL-17A = cyno IL-17A (cynomolgus monkey, UniProt A0A2K5TTB0 24-155); test: SPR Biacore, captured binder
# Experimental: (§1) The binding of antibodies to purified recombinant human, cyno, rat, mouse, rabbit IL-17 and human IL-17A/F were determined by surface plasmon resonance-based measurements with a Biacore® 3000 instrument (Biacore® AB, Uppsala, Sweden) using running HBS-EP (10 mM HEPES [pH 7.4], 150 mM NaCl, 3 mM EDTA, and 0.005% surfactant P20) at 25° C. […] Approximately 5000 RU of goat anti-mouse or anti-human IgG (Fcγ) fragment specific polyclonal antibody (Pierce Biotechnology Inc, Rockford, Ill.) diluted in 10 mM sodium acetate (pH 4.5) was directly immobilized across a CM5 research grade biosensor chip using a standard amine coupling kit according to manufacturer's instructions and procedures at 25 μg/ml. Unreacted moieties on the biosensor surface were blocked with ethanolamine. Modified carboxymethyl dextran surface in flowcell 2 and 4 was used as a reaction surface. Unmodified carboxymethyl dextran without goat anti-mouse or anti-human IgG in flow cell 1 and 3 was used as the reference surface. For kinetic analysis, rate equations derived from the 1:1 Langmuir binding model were fitted simultaneously to association and dissociation phases of all eight injections (using global fit analysis) with the use of Biaevaluation 4.0.1 software. Purified antibodies were diluted in HEPES-buffered saline for capture across goat anti-mouse or anti-human IgG specific reaction surfaces. Antibodies to be captured as a ligand (25 μg/ml) were injected over reaction matrices at a flow rate of 5 μl/min. The association and dissociation rate constants, kon (unit M-1s-1) and koff (unit s-1) were determined under a continuous flow rate of 25 μl/min. Rate constants were derived by making kinetic binding measurements at ten different antigen concentrations ranging from 10 nM to 200 nM. The equilibrium dissociation constant (unit M) of the reaction between antibodies and recombinant purified IL-17 antigens was then calculated from the kinetic rate constants by the following formula: KD=koff/kon. Binding was recorded as a function of time and kinetic rate constants are calculated. In this assay, on-rates as fast as 10⁶ M⁻¹ s⁻¹ and off-rates as slow as 10⁻⁶ s⁻¹ can be measured.
# human IL-17A/F = biological target: T1, human IL-17A/F (human, UniProt Q16552 24-155; Q96PD4 31-163); test: SPR Biacore, captured binder
# T1 construct: Heterodimer of IL-17A and IL-17F, purified recombinant; also called HuIL-17A/F; Hu IL-17A/F
# Experimental: as §1
# human IL-17A [1] = biological target: T2, human IL-17A (human, UniProt Q16552 24-155); test: SPR Biacore, captured binder
# T2 construct: Purified recombinant; biotinylated in the ELISA; also called HuIL-17A; Hu IL-17A
# T2 sequence (Q16552 24-155 limits assumed): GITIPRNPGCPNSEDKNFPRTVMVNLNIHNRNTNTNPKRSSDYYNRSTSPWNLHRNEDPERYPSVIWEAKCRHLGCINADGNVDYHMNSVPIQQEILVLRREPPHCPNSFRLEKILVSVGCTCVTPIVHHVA
# Experimental: as §1
# human IL-17A [2] = biological target: T3, human IL-17A (human, UniProt Q16552 24-155); test: hIL17A ELISA
# T3 construct: Recombinant; biotinylated in the ELISA; also called hIL-17; hIL17A
# T3 sequence (Q16552 24-155): as the sequence (Q16552 24-155 limits assumed) above
# Experimental: The following protocol is used to characterize the binding of IL-17 antibodies to human IL-17 by enzyme-linked immunosorbent assay (ELISA). […] Coat ELISA plate with 50 μl per well of Goat anti Mouse IgG-Fc at 2 ug/ml, overnight at 4° C. […] Wash plate 3×PBS/Tween. […] Add 50 μl Mab diluted to 1 μg/ml in PBS/0.1% BSA to appropriate wells. Incubate 1 hr at room temperature (RT). […] Wash plate 3× with PBS/Tween. […] Add 50 μl of serial diluted biotin-IL17 (human IL-17, IL-17A/F, cyno IL-17) to appropriate wells. Incubate 1 hr at room temperature (RT). […] Wash plate 3× with PBS/Tween. […] Incubate 1 hr at RT. […] Wash plate 3× with PBS/Tween. […] Stop reaction with 50 μl 2N H₂SO₄. […] Read absorbance at 450 nm.
# T1 sequence (Q16552 24-155 limits assumed, chain 1 of 2): as the sequence (Q16552 24-155 limits assumed) above
# T1 sequence (Q96PD4 31-163 limits assumed, chain 2 of 2): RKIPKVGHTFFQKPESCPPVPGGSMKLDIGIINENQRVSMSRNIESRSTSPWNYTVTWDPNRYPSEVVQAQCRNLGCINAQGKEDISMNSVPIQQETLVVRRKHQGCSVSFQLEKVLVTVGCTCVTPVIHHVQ
# cyno IL-17A, sequence (A0A2K5TTB0 entry or part of it): as the sequence (Q16552 24-155 limits assumed) above, with T3A, P8S, N34S, I77V, N78K, P104R counted along it
Binder,Kd (cyno IL-17A),koff (cyno IL-17A),kon (cyno IL-17A),Kd (human IL-17A/F),koff (human IL-17A/F),kon (human IL-17A/F),Kd (human IL-17A [1]),koff (human IL-17A [1]),kon (human IL-17A [1]),EC50 (human IL-17A [2])
B1,2.07 nM,0.000199 s⁻¹,96000 M⁻¹ s⁻¹,0.907 nM,9.7e-05 s⁻¹,107000 M⁻¹ s⁻¹,0.28 nM,8.65e-05 s⁻¹,309000 M⁻¹ s⁻¹,
B2,0.00265 nM,1e-06 s⁻¹,377000 M⁻¹ s⁻¹,0.244 nM,3.95e-05 s⁻¹,162000 M⁻¹ s⁻¹,0.00322 nM,1e-06 s⁻¹,311000 M⁻¹ s⁻¹,
B3,< 0.0027 nM,< 1e-06 s⁻¹,371000 M⁻¹ s⁻¹,0.437 nM,8.66e-05 s⁻¹,198000 M⁻¹ s⁻¹,< 0.00433 nM,< 1e-06 s⁻¹,231000 M⁻¹ s⁻¹,
B4,0.00377 nM,1e-06 s⁻¹,265000 M⁻¹ s⁻¹,0.00424 nM,1e-06 s⁻¹,236000 M⁻¹ s⁻¹,0.00469 nM,1e-06 s⁻¹,213000 M⁻¹ s⁻¹,
B5,0.00296 nM,1e-06 s⁻¹,338000 M⁻¹ s⁻¹,0.00313 nM,1e-06 s⁻¹,320000 M⁻¹ s⁻¹,0.0257 nM,1.05e-05 s⁻¹,408000 M⁻¹ s⁻¹,
B6,< 0.00245 nM,< 1e-06 s⁻¹,408000 M⁻¹ s⁻¹,0.0103 nM,1.41e-06 s⁻¹,137000 M⁻¹ s⁻¹,0.00826 nM,2.32e-06 s⁻¹,281000 M⁻¹ s⁻¹,
B7,,,,,,,,,,0.23 nM
B8,,,,,,,,,,0.03 nM
B9,,,,,,,,,,0.11 nM
B10,,,,,,,,,,0.03 nM
B11,,,,,,,,,,0.05 nM
B12,,,,,,,,,,0.05 nM
B13,,,,,,,,,,0.06 nM
B14,,,,,,,,,,1.7 nM
B15,,,,,,,,,,0.04 nM
B16,,,,,,,,,,0.05 nM
B17,,,,,,,,,,3.9 nM
B18,,,,,,,,,,0.14 nM
B19,,,,,,,,,,0.05 nM
B20,,,,,,,,,,0.13 nM
B21,,,,,,,,,,0.09 nM
B22,,,,,,,,,,1 nM
B23,,,,,,,,,,0.03 nM
B24,,,,,,,,,,0.02 nM
B25,0.992 nM,2.51e-05 s⁻¹,25300 M⁻¹ s⁻¹,21.9 nM,0.000175 s⁻¹,7980 M⁻¹ s⁻¹,0.84 nM,1.47e-05 s⁻¹,17500 M⁻¹ s⁻¹,
B26,0.00401 nM,5.5e-05 s⁻¹,1.37e+07 M⁻¹ s⁻¹,0.00647 nM,5.71e-05 s⁻¹,8.82e+06 M⁻¹ s⁻¹,0.0073 nM,6.02e-05 s⁻¹,8.25e+06 M⁻¹ s⁻¹,
